± gives the uncertainty stated by the source.
B1: POU domain, class 4, transcription factor 1, residues 266 to 347; numbered along this chain, Q01851 (parent)
chain: RELEAFAERFKQRRIKLGVTQADVGSALANLKIPGVGSLSQSTICRFESLTLSHNNMIALKPILQAWLEEAEGAQREKMNKP
B2: Pituitary-specific positive transcription factor 1, residues 130 to 198; numbered along this chain, P28069 (parent)
chain: RELEKFANEFKVRRIKLGYTQTNVGEALAAVHGSEFSQTTICRFENLQLSFKNACKLKAILSKWLEEAE

Variants of: B1
Test: abundance fitness (aPCA) (normalised: wild type 0, dead -1); higher = more abundant; growth selection in yeast, the domain comes from the species named
Conditions: Homo sapiens

Row | Variant | abundance fitness
1 | RELEAFAERFKQRRIKLGVTQADVGSALANLKIPGVGSLSQSTICRFESVTLSHNNMIALKPILQAWLEEAEGAQREKMNKP | -0.006 ± 0.033
2 | RELEAFAERFKQRRIKLGVTQADVGSALAALKIPGVGSLSQSTICRFESLTLSHNNMIALKPILQAWLEEAEGAQREKMNKP | 0.028 ± 0.059
3 | RELEAFAERFKQRRIKLGVTQADVGSALANLKHPGVGSLSQSTICRFESLTLSHNNMIALKPILQAWLEEAEGAQREKMNKP | -0.147 ± 0.06
4 | RELEAFAERFKQRRIKLGVTQADVGSALANLKIPGVGSLSQSTICRFESLTLSHNNMIALKPILQAWLEEAEGAQREKMNKF | -0.105 ± 0.19
5 | RELEAFAERFKQRRIKLGVTQADVGSALANLLIPGVGSLSQSTICRFESLTLSHNNMIALKPILQAWLEEAEGAQREKMNKP | -0.105 ± 0.064
6 | RELEAFAERFKQRRIKLGVTQADVGSALANLKIPGVGSLSQSTICRFESLTLSHNNMIALKPILQAWLEEAEGAQREDMNKP | -0.153 ± 0.14
7 | RELEAFAERFKQRRIKLGVTQADVGSALANLKIPGVGSLSQSTICRFESLTLSHNNMIALIPILQAWLEEAEGAQREKMNKP | 0.165 ± 0.25
8 | RELEAFAERFKQRRIKLGVTQADVGSALANLKIPGVGVLSQSTICRFESLTLSHNNMIALKPILQAWLEEAEGAQREKMNKP | 0.05 ± 0.2
9 | RELEAFAEFFKQRRIKLGVTQADVGSALANLKIPGVGSLSQSTICRFESLTLSHNNMIALKPILQAWLEEAEGAQREKMNKP | -0.178 ± 0.13
10 | RELEAFAERFKQRRIKLGVTQADVGSALANLKIPGVGSLSQSTICRFESLTLSHNNMINLKPILQAWLEEAEGAQREKMNKP | -0.278 ± 0.2
11 | RELEAFAERFKQRRIKLGVTQADVGSALANLKIPGVGSLSQSTICRFESLTLSHNNMIALKPILQAWLEEALGAQREKMNKP | -0.431 ± 0.056
12 | RELEAFAERFKQRRIKLGVTQADVGSALANLKIPGVGSLSQSTIDRFESLTLSHNNMIALKPILQAWLEEAEGAQREKMNKP | -0.139 ± 0.09
13 | RELEAFAERFKQRRIKLGVTQADVGSALANLKIPGVGSLSQSTICRFESLTLSHNNMIALKPILEAWLEEAEGAQREKMNKP | 0.061 ± 0.031
14 | RELEAFAERFKQRRIKLGVTQADVGSALANLKIPGVGSLSQSTICRFASLTLSHNNMIALKPILQAWLEEAEGAQREKMNKP | -1.1 ± 0.094

Variants of: B2
Test: as above
Conditions: Homo sapiens

Row | Variant | abundance fitness
15 | RELEKFANEFKVRRIKLGYTQTNVGEALANVHGSEFSQTTICRFENLQLSFKNACKLKAILSKWLEEAE | -0.219 ± 0.071
16 | RELEKFANEFKVRRIKLGYTQTNVGEALAAVHGSEFSQTTICRFENLQLSFKNACKLKCILSKWLEEAE | -0.084 ± 0.056
17 | RELEKFANEFKVRRIKLGYTQTNVGEALAAVHGSEFSQTTICRFENLQLSFKNACKLKLILSKWLEEAE | -0.122 ± 0.046
18 | RELEKFANEFKVRRIKLGYTQTNVGEALAAVHGTEFSQTTICRFENLQLSFKNACKLKAILSKWLEEAE | -0.139 ± 0.097
19 | RELEKFANEFKVRRIKLGYTQTNVGEALAAVHGSEFSQTTICRFENLQLSFKNACSLKAILSKWLEEAE | -0.23 ± 0.049
20 | RELPKFANEFKVRRIKLGYTQTNVGEALAAVHGSEFSQTTICRFENLQLSFKNACKLKAILSKWLEEAE | -0.898 ± 0.15
21 | RELEKFANEFKVRRIKKGYTQTNVGEALAAVHGSEFSQTTICRFENLQLSFKNACKLKAILSKWLEEAE | -0.804 ± 0.26
22 | RELEKFANEFKKRRIKLGYTQTNVGEALAAVHGSEFSQTTICRFENLQLSFKNACKLKAILSKWLEEAE | -0.071 ± 0.088
23 | RELEKFANEFKVRRIKLGYTQTNKGEALAAVHGSEFSQTTICRFENLQLSFKNACKLKAILSKWLEEAE | -0.846 ± 0.47
24 | RELEKFANEFKVRRIKLGYTQTNVGEALAAVHGSEFSQTTICRFENLQGSFKNACKLKAILSKWLEEAE | -0.632 ± 0.11
25 | RELEKFANEFKVRRIKLGYTQTNVGEALAAVHGSEWSQTTICRFENLQLSFKNACKLKAILSKWLEEAE | -0.229 ± 0.082
26 | RELEKFANEFKVRRIKLGYTNTNVGEALAAVHGSEFSQTTICRFENLQLSFKNACKLKAILSKWLEEAE | -0.766 ± 0.29
27 | RELEKFANEFKVRRIKLGYTQTNVGEALAAVHSSEFSQTTICRFENLQLSFKNACKLKAILSKWLEEAE | -0.75 ± 0.07
28 | RELEKFANEFKVRRIKLGYTQTNVGEALAAVHGSEFSQTTICRFENLQLSFKNACKLKAILSKWKEEAE | -0.75 ± 0.11
29 | RELEKFANEFKVRRIKLGYTQTNVGEALAAVHGSEFSQTTICFFENLQLSFKNACKLKAILSKWLEEAE | -0.289 ± 0.42
30 | RELEKNANEFKVRRIKLGYTQTNVGEALAAVHGSEFSQTTICRFENLQLSFKNACKLKAILSKWLEEAE | -0.88 ± 0.21
31 | RELEKFANEFKVRRIKLGYTQTNVGEALAAVHGSEFSQTTICRFENLQLSHKNACKLKAILSKWLEEAE | 0.077 ± 0.095
32 | RELEKFANEFKVRRIKLGYTQTNVGEALAAVHGSEFSQTTICRFENLQLSSKNACKLKAILSKWLEEAE | -0.189 ± 0.047
33 | RELEKFANEFKVRRIKLGYTQTNVIEALAAVHGSEFSQTTICRFENLQLSFKNACKLKAILSKWLEEAE | -0.184 ± 0.15
34 | RELEKFANEFKVRRIKLGYTQTNVQEALAAVHGSEFSQTTICRFENLQLSFKNACKLKAILSKWLEEAE | -0.171 ± 0.074
35 | RELEKFANEFKVRRIKLGYTQTNVKEALAAVHGSEFSQTTICRFENLQLSFKNACKLKAILSKWLEEAE | -0.797 ± 0.22
36 | RELEEFANEFKVRRIKLGYTQTNVGEALAAVHGSEFSQTTICRFENLQLSFKNACKLKAILSKWLEEAE | -0.062 ± 0.049
37 | REIEKFANEFKVRRIKLGYTQTNVGEALAAVHGSEFSQTTICRFENLQLSFKNACKLKAILSKWLEEAE | -0.194 ± 0.22
